Numbering of substitutions follows the chain as printed. Numbers in names are those of the source.
B1: S459A: Bub1 S459A mutation (protein, UniProt O43683 1-1085, looked up, variant S459A)
Mitotic checkpoint …: MDTPENVLQMLEAHMQSYKGNDPLGEWERYIQWVEENFPENKEYLITLLEHLMKEFLDKKKYHNDPRFISYCLKFAEYNSDLHQFFEFLYNHGIGTLSSPLYIAWAGHLEAQGELQHASAVLQRGIQNQAEPREFLQQQYRLFQTRLTETHLPAQARTSEPLHNVQVLNQMITSKSNPGNNMACISKNQGSELSGVISSACDKESNMERRVITISKSEYSVHSSLASKVDVEQVVMYCKEKLIRGESEFSFEELRAQKYNQRRKHEQWVNEDRHYMKRKEANAFEEQLLKQKMDELHKKLHQVVETSHEDLPASQERSEVNPARMGPSVGSQQELRAPCLPVTYQQTPVNMEKNPREAPPVVPPLANAISAALVSPATSQSIAPPVPLKAQTVTDSMFAVASKDAGCVNKSTHEFKPQSGAEIKEGCETHKVANTSSFHTTPNTSLGMVQATPSKVQPAPTVHTKEALGFIMNMFQAPTLPDISDDKDEWQSLDQNEDAFEAQFQKNVRSSGAWGVNKIISSLSSAFHVFEDGNKENYGLPQPKNKPTGARTFGERSVSRLPSKPKEEVPHAEEFLDDSTVWGIRCNKTLAPSPKSPGDFTSAAQLASTPFHKLPVESVHILEDKENVVAKQCTQATLDSCEENMVVPSRDGKFSPIQEKSPKQALSSHMYSASLLRLSQPAAGGVLTCEAELGVEACRLTDTDAAIAEDPPDAIAGLQAEWMQMSSLGTVDAPNFIVGNPWDDKLIFKLLSGLSKPVSSYPNTFEWQCKLPAIKPKTEFQLGSKLVYVHHLLGEGAFAQVYEATQGDLNDAKNKQKFVLKVQKPANPWEFYIGTQLMERLKPSMQHMFMKFYSAHLFQNGSVLVGELYSYGTLLNAINLYKNTPEKVMPQGLVISFAMRMLYMIEQVHDCEIIHGDIKPDNFILGNGFLEQDDEDDLSAGLALIDLGQSIDMKLFPKGTIFTAKCETSGFQCVEMLSNKPWNYQIDYFGVAATVYCMLFGTYMKVKNEGGECKPEGLFRRLPHLDMWNEFFHVMLNIPDCHHLPSLDLLRQKLKKVFQQHYTNKIRALRNRLIVLLLECKRSRK
B2: F629A: Mad1 F629A mutant (protein, UniProt Q9Y6D9 1-718, looked up, variant F629A)
Mitotic spindle assembly …: MEDLGENTMVLSTLRSLNNFISQRVEGGSGLDISTSAPGSLQMQYQQSMQLEERAEQIRSKSHLIQVEREKMQMELSHKRARVELERAASTSARNYEREVDRNQELLTRIRQLQEREAGAEEKMQEQLERNRQCQQNLDAASKRLREKEDSLAQAGETINALKGRISELQWSVMDQEMRVKRLESEKQELQEQLDLQHKKCQEANQKIQELQASQEARADHEQQIKDLEQKLSLQEQDAAIVKNMKSELVRLPRLERELKQLREESAHLREMRETNGLLQEELEGLQRKLGRQEKMQETLVGLELENERLLAKLQSWERLDQTMGLSIRTPEDLSRFVVELQQRELALKDKNSAVTSSARGLEKARQQLQEELRQVSGQLLEERKKRETHEALARRLQKRVLLLTKERDGMRAILGSYDSELTPAEYSPQLTRRMREAEDMVQKVHSHSAEMEAQLSQALEELGGQKQRADMLEMELKMLKSQSSSAEQSFLFSREEADTLRLKVEELEGERSRLEEEKRMLEAQLERRALQGDYDQSRTKVLHMSLNPTSVARQRLREDHSQLQAECERLRGLLRAMERGGTVPADLEAAAASLPSSKEVAELKKQVESAELKNQRLKEVFQTKIQEARKACYTLTGYQIDITTENQYRLTSLYAEHPGDCLIFKATSPSGSKMQLLETEFSHTVGELIEVHLRRQDSIPAFLSSLTLELFSRQTVA
B3: R630A: Mad1 R630A mutant (protein, UniProt Q9Y6D9 1-718, looked up, variant R630A)
Mitotic spindle assembly …: B2 Mitotic spindle assembly … with A629F, R630A

What was measured:
kinetochore = details: cited from earlier work; for kinetochore targeting of F629A / R630A mutants, in words: ref Ji et al, 2017b
From the text: Formation of the Bub1‐Mad1 complex at kinetochores is dependent on phosphorylation of Bub1, a targeting mechanism conserved from yeast to humans (Heinrich et al, [2014]; London & Biggins, [2014a]; Silió et al, [2015]). In S. cerevisiae, phosphorylation of Bub1 at Thr453 and Thr455 by Mps1 promotes an interaction with Mad1^CTD, with pThr455 alone being sufficient for this interaction (London & Biggins, [2014a]; Ji et al, [2017b]). […] Phe629 is a buried hydrophobic residue which contacts Phe629 of the opposite subunit and therefore contributes to the hydrophobic dimerization interface of Mad1^CTD. Phe629 also contributes to the hydrophobic interface of the Bub1^CD1‐Mad1^CTD complex by stacking with Bub1 Phe475 (Fig 3B). […] However, we suspect this could be linked to disruption of the Mad1 conformation sinc ...

[1] = Aggregation of Mad1^CTD mutants; format: physicochemical; details: purified Mad1^CTD mutant
From the text: The coding region of Mad1^597–719 was cloned by USER® (NEB) into a modified pRSFDuet‐1 vector (71341‐3, Sigma‐Aldrich) with an N‐terminal double Strep His6‐tag, followed by a tobacco etch virus (TEV) protease cleavage site (Demple & Linn, [1982]; Bitinaite et al, [1992]). Mad1 mutants were generated using the QuikChange™ Lightning Site‐Directed Mutagenesis Kit (Agilent), developed by Stratagene Inc. (La Jolla, CA) (Nøhr & Kristiansen, [2003]). Mad1 constructs were transformed into Rosetta™ 2 (DE3) Singles™ Competent Cells (71400, Novagen) for expression. Expression was induced with 0.5 mM IPTG and grown overnight at 18°C. Cells were lysed in 25 mM HEPES pH 8.1, 250 mM NaCl, 2 mM DTT, 5% glycerol, 2 mM EDTA supplemented with lysozyme, and Complete™ EDTA‐free protease inhibitors (Roche). Proteins were purified over a Strep‐Tactin Superflow Plus column (QIAGEN) and cleaved with TEV protease overnight at 4°C. […]
Size exclusion chromatography coupled with multi‐angle static light scattering (SEC‐MALS) was performed using an Agilent 1200 series LC system with an online Dawn Helios ii system (Wyatt) equipped with a QELS+ module (Wyatt) and an Optilab rEX differential refractive index detector (Wyatt). […] The molecular masses were analysed with ASTRA 7.3.0.11 (Wyatt). […]

Molecule | Mad1 kinetochore recruitment by Bub1 S459A, in words (kinetochore; ref Zhang et al, 2017) | kinetochore targeting of F629A / R630A mutants, in words (kinetochore) | aggregation, in words [1]
B1 | inactivates Bub1‐mediated Mad1 kinetochore recruitment |  | 
B2 |  | defective in kinetochore targeting | had a propensity to aggregate
B3 |  | defective in kinetochore targeting | 
